Laboratory results reported in patent US20250313611A1 (VIB VZW, published 2025).
Where two headings read alike, the source gives them in different places.

T1: recombinant HKU1 spike protein (HCoV-HKU1, UniProt Q5MQD0 13-1276)
T1 sequence: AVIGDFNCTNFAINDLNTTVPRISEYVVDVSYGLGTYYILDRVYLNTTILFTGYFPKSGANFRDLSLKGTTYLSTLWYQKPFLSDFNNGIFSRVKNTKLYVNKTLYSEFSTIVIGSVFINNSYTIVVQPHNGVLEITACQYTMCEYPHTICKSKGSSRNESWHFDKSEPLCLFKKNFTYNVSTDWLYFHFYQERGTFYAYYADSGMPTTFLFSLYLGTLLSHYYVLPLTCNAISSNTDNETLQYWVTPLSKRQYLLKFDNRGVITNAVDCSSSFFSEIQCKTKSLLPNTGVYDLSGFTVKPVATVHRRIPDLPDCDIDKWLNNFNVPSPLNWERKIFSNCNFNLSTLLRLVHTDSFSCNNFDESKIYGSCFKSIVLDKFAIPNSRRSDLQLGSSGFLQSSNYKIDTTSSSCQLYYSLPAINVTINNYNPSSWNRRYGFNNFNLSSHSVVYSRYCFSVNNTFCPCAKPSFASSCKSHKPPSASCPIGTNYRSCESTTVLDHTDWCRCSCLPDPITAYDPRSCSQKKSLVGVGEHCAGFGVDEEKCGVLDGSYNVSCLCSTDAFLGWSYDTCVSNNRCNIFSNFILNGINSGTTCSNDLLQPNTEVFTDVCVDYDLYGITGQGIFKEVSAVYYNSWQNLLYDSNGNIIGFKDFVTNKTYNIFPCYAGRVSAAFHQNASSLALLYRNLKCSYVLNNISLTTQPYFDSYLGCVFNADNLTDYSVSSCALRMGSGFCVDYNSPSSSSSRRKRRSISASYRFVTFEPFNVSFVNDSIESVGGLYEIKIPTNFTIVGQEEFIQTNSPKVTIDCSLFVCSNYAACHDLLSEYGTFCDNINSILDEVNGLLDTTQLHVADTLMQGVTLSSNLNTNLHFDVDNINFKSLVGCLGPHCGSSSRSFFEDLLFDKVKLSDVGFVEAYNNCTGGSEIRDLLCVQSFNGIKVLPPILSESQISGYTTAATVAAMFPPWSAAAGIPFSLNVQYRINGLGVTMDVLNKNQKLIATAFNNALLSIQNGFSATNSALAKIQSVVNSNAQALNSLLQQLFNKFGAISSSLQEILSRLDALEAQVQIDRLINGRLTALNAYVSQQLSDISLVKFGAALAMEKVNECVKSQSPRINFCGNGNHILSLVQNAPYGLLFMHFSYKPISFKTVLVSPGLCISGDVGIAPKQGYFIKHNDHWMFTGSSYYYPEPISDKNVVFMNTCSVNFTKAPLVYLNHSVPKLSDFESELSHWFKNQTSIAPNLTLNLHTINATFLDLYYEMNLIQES

T2: recombinant MERS-COV spike protein (MERS-CoV, UniProt K9N5Q8 18-1291)
T2 sequence: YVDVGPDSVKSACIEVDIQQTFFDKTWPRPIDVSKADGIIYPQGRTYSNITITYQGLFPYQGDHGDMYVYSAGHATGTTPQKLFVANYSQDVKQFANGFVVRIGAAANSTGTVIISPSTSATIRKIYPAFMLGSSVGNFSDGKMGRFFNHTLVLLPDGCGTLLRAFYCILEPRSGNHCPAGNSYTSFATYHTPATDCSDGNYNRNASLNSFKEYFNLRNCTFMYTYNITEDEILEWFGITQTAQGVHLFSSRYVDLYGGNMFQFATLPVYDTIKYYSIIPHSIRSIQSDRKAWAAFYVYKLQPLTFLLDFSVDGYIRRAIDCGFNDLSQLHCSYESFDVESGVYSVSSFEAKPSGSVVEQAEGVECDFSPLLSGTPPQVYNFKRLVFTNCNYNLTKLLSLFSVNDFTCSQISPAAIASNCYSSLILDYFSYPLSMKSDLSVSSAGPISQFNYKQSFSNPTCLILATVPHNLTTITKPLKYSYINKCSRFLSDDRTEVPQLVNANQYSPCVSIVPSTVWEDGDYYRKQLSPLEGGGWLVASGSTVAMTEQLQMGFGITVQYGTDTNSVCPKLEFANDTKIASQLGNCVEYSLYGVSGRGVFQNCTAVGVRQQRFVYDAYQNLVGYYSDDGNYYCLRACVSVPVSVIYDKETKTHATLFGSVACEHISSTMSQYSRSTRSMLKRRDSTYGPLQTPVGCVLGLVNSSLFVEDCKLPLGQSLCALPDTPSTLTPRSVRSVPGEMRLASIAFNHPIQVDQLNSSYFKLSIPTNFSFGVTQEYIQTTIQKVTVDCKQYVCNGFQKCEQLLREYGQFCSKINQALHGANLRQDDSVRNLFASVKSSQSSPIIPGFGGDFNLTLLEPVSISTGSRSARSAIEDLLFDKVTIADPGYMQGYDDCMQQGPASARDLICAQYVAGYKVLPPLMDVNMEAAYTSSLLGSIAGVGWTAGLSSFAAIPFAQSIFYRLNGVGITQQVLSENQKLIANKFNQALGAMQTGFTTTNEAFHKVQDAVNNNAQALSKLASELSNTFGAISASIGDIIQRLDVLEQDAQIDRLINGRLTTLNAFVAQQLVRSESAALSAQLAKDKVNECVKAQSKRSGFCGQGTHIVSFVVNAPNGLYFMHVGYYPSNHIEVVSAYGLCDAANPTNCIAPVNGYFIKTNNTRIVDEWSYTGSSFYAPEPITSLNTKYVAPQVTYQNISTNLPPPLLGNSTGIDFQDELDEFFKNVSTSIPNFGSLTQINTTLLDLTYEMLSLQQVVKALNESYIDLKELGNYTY


Columns and labels:
[1] = biological target: T3, SARS-COV-2 RBD (His-tagged, Sinobiologicals) (SARS-CoV-2 (Wuhan), UniProt P0DTC2 319-541); experiment: ELISA, periplasmic extract 1/10, OD450 antigen/OD450 BSA
[2] = biological target: T3, SARS-COV-2 RBD (His-tagged, …); experiment: as above; remark: listed apart in the source
[3] = biological target: T1, recombinant HKU1 spike protein; experiment: ELISA, periplasmic extract 1/10, heat map of binding (%)
[4] = biological target: T2, recombinant MERS-COV spike protein; experiment: as above

Row | Binder | binding result [1] | binding result [2] | binding result [3] | binding result [4]
1 | 3.83 (VHH) VHH: QVQLQESGGGLVQPGDSLRLSCVLSGGVFTSYAMGWFRQAPGKEREFLAAITFNSDATYYADSVKGRFTISRDNAKNTAYLQMNSLKPNDTAVYSCAAGGNHYNPQYYHDYDKYDHWGQGTQVTVSS | binds | – | – | –
2 | VHH R3_DC5 (VHH) VHH: QVQLQESGGGLVQAGDSLRLSCAASGRIFSTYTMGWFRQAPGMEREFVAAIRWSGSTVYYADSVKGRFTISRDNAKNTVYLQMNSLKPEDTAVYYCAAARVSKANYGTLWYRATGLYDYWGQGTQVTVSS | – | no binding (tested: extract 1/10, concentration not given) | no binding (tested: extract 1/10, concentration not given) | no binding (tested: extract 1/10, concentration not given)
3 | VHH R3_DC19 (VHH) VHH: QVQLQESGGGLVQPGDSLRLSCAVSGRPFSTYTMGWFRQAPGKEREFVAAMRWSGGTIYYADSVKGRFTISRDNDKNTVNLEMNSLKPEDTAVYYCAAAYVSKANYGSLWYRASGLYDYWGQGTQVTVSS | – | no binding (tested: extract 1/10, concentration not given) | no binding (tested: extract 1/10, concentration not given) | no binding (tested: extract 1/10, concentration not given)
4 | VHH R3_DC21 (VHH) VHH: QVQLQESGGGLVQAGDSLRLSCAVSGRPFSTYTMGWFRQAPGKEREFVAAMRWSGGTIYYADSVRGRFTISRDNDKNTVNLEMNSLKPEDTAVYYCAAAYVSKANYGSLWYRASGLYDYWGQGTQVTVSS | – | no binding (tested: extract 1/10, concentration not given) | no binding (tested: extract 1/10, concentration not given) | no binding (tested: extract 1/10, concentration not given)
